Laboratory results published in patent EP4375293A1 (Max-Planck-Gesellschaft zur Förderung der Wissenschaften …, dated 2024).

How the values were obtained:
[1] = biological target: SARS-CoV-2 spike protein of the original Wuhan strain (SARS-CoV-2 (Wuhan/Wildtype strain), UniProt P0DTC2 14-1273); experiment: cell-based or functional assay
[2] = biological target: SARS-CoV-2 wild type RBD (wt_RBD-AviHis) (SARS-CoV-2 (Wuhan/Wildtype strain)); experiment: BLI, biotinylated RBD, mass transport model fit
[3] = biological target: SARS-CoV-2 wild type RBD (wt_RBD-AviHis) (SARS-CoV-2 (Wuhan/Wildtype strain)); experiment: BLI, biotinylated RBD, mass transport model fit; remark: listed apart in the source

Binder | Lowest virus neutralizing concentration (pM; IC99) [1] [pM] | Kd [2] [nM] | Kd [3] [nM]
Ma16B06 (VHH, Monomeric VHH; also called VHH Ma16B06) VHH: QVQLVESGGGLVRTGGSLRLSCAASGSILQIWAMKWYRQAPGLQREWIATIPNSGEPFYASSVEGRFTGSRENEETVYLYLNNLEPEDTAVYYCEVNEGVPVREYWGQGTQVTVSS | 1700 | ≤ 0.01 | 
Re32D03 (VHH) VHH: QVQLVESGGGLVQPGGSLRLSCAISGITLDYYAVGWFLQAPGKEREGISCMRNWDGRTVYAPSVKGRFTISSDNAKKMVYLEMDNLKSEDTGVYYCAAGPLPPGISCRIPTPLGYDDWGQGTQVTVSS |  |  | ≤ 0.01
Ma28H11 (VHH, Monomeric VHH; also called M28H11) VHH: QVQLVESGGGLVQPGGSLRLSCATSGLTLDHYAIGWFLQAPGKEREGVACVSDDERSLYAPSVMGRFSISRDNAKKTFYLEMNSLKPEDTGVYYCASGPVVPGTLCRIPTVLGYDDWGQGTQVTVSS | 170 | ≤ 0.01 | 
Ma28D01 (VHH, Monomeric VHH) VHH: QVQLVESGGGLVQPGGSLRLSCVVSELGLDYYQIGWFRQAPGKEREGVSCFRSSDEIRYYADSVKGRFTTFRDNAGTTVYLQMNSLKPEDTGVYYCAVAPQTYYHGTWYGECAAAGMDSWGKGTQVTVSS | 500 | ≤ 0.01 | 
Ma28F04 (VHH, Monomeric VHH) VHH: QVQLVESGGGLVQPGGSLRLSCVVSDLGLDYYQIGWFRQAPGKEREGVSCFRSSDEIRYYADPVKGRFTTFRDNAGTTVYLQMNSLKPEDTGVYYCAVAPQTYYHGTWYGECAAAGMDSWGKGTLVTVSS | 500 | ≤ 0.01 | 
Re5D06 (VHH) VHH: QVQLVESGGGLVQPGGSLRLSCAASGITLDYYAIGWFRQAPGKEREGVSRIRSSDGSTNYADSVKGRFTMSRDNAKNTVYLQMNSLKPEDTAVYYCAYGPLTKYGSSWYWPYEYDYWGQGTQVTVSS |  |  | ≤ 0.01
Re6H06 (VHH) VHH: QVQLVESGGGLVQPGGSLRLSCAASGVTLDYYAIGWFRQAPGKEREGVSCTSSSDGSTYYADSVKGRFTISRDNAKNTVYLQMNSLKPEDTGVYYCAVVPQTYYGGKYYSQCTANGMDYWGKGTLVTVSS |  |  | ≤ 0.01
Re9B09 (VHH) VHH: QVQLVESGGGLVQPGGSLRLSCAASGFTLDYYAIGWFRQAPGKEREGVSRISSSDGSTDYADSVKGRFTISRDNAKNTVYLQMNSLKPEDTAVYYCATVPGTYYSGNWYYTWHPEAVDYWGKGTQVTVSS |  |  | 0.03
